Data published in patent US20140154245A1 (L AND K BIOMED, published 2014).

What was measured:
[1] = target: T1, human EMAPII (endothelial monocyte activating polypeptide II) antigen (human, UniProt Q12904 1-312, limits assumed); assay: ELISA, EMAPII antigen coated on the plate, antibody titrated
T1 construct: also called EMAPII antigen; p43
T1 sequence: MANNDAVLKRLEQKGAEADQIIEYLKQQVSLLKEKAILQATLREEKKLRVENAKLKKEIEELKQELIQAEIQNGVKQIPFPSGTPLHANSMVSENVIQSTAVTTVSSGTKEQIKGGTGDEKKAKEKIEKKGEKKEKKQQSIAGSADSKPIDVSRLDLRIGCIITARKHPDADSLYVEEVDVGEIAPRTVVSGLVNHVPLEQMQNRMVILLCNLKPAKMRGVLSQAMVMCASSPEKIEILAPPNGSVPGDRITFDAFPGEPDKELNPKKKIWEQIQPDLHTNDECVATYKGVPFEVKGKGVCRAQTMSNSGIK
Procedure: (§1) Wells of a 96 well plate were coated with 100 μl of different concentrations of EMAPII antigen (10 μg/ml, 5 μg/ml, 2.5 μg/ml, 1 μg/ml, 0.5 μg/ml, 0.2 μg/ml) and were incubated at 37° C. for 2 hours. The coated antigens were blocked using BSA and washed with washing buffer. Dilutions of the parental murine anti-EMAPII antibody (starting at 1 μg/ml, two-fold serial dilution) were added to the antigens and incubated for 2 hours. The mixture was washed three times and anti-IgG-HRP antibody was added to the mixture and incubated for 1 hour. The mixture was washed with washing buffer three times. The substrate was added to the mixture and maintained for 30 minutes. After developing, stop solution was added and detected absorbance at the wavelength of 450 nm (FIG. 12). Bound antibody was detected with anti-mouse IgG-HRP conjugate. A concentration of 2.5 μg/ml antigen was selected for testing the chimeric clones.
(§2) The ability of mouse/human chimeric antibody BAP015_{—}1 to bind to the EMAPII antigen was determined by using the ELISA protocol provided by StemScience and the optimized conditions determined as described above. Bound chimeric antibody was detected with anti-human-IgG HRP conjugate (FIG. 13). All 3 clones tested bind to EMAPII. The binding curves of all 3 clones are very similar to each other and to the murine antibody.

[2] = target: T1, human EMAPII (endothelial monocyte …); assay: ELISA, EMAPII antigen coated on the plate, antibody titrated (3 clones)
Procedure: as §1, §2

B1: mouse anti-EMAPII monoclonal antibody (antibody, V domains shown)
VH: QVQLQQSGAELARPGASVKMSCKASGYTFTSYTMHWVKQRPGQGLEWIGYINPSSGFTNYNQKFKDKATLTADKSSSTAYMQLSSLTSEDSAVYYCASRFAYWGQG
VL: DIVMTQSHKFMSTSVGDRVSITCKASQDVSTAVAWYQQKPGQSPKLLIFSASYRYTGVPDRFTGSGSGTDFTFTISSVQAEDLAVYYCQQHYSTPYTFGQG
notes: Mouse IgG1 with kappa light chain, from a hybridoma; also called murine EMAPII mAb; parental murine anti-EMAPII antibody
EC50 [1]: 0.0209 µg/mL

B2: mouse/human chimeric antibody BAP015-1 (antibody, V domains shown)
VH: QVQLQQSGAELARPGASVKMSCKASGYTFTSYTMHWVKQRPGQGLEWIGYINPSSGFTNYNQKFKDKATLTADKSSSTAYMQLSSLTSEDSAVYYCASRFAYWGQG
VL: DIVMTQSHKFMSTSVGDRVSITCKASQDVSTAVAWYQQKPGQSPKLLIFSASYRYTGVPDRFTGSGSGTDFTFTISSVQAEDLAVYYCQQHYSTPYTFGQG
notes: VL is fused to a human kappa constant region and VH to a human IgG1 constant region (full-length IgG1, from CHO-S supernatant); Three plasmid clones of the same construct were tested; they are treated as one molecule; also called chimeric anti-EMAPII antibody; chimeric clone BAP015-1
EC50 [2]: 0.0215 to 0.0302 µg/mL
